Assay results as given in publication PMC9812933.
Blank lines part the entries; values can stand above or below the molecule they belong to.

Legend:
CheA (Escherichia coli) = CheA (Escherichia coli) (UniProt P07363); conditions: cited from earlier work
[1] = target: cytoplasmic fragment of the E coli Asp receptor (CF4Q) (E. coli); test: co-sedimentation

Molecule: CheA (from UniProt P07363)
Kd (CheA (Escherichia coli)): 490 nM

fraction of CheA bound [1]: 88%
B1: chemotaxis histidine kinase (CheA) (enzyme)
chain: MSMDISDFYQTFFDEADELLADMEQHLLVLQPEAPDAEQLNAIFRAAHSIKGGAGTFGFSVLQETTHLMENLLDEARRGEMQLNTDIINLFLETKDIMQEQLDAYKQSQEPDAASFDYICQALRQLALEAKGETPSAVTRLSVVAKSEPQDEQSRSQSPRRIILSRLKAGEVDLLEEELGHLTTLTDVVKGADSLSAILPGDIAEDDITAVLCFVIEADQITFETVEVSPKISTPPVLKLAAEQAPTGRVEREKTTRSNESTSIRVAVEKVDQLINLVGELVITQSMLAQRSSELDPVNHGDLITSMGQLQRNARDLQESVMSIRMMPMEYVFSRYPRLVRDLAGKLGKQVELTLVGSSTELDKSLIERIIDPLTHLVRNSLDHGIELPEKRLAAGKNSVGNLILSAEHQGGNICIEVTDDGAGLNRERILAKAASQGLTVSENMSDDEVAMLIFAPGFSTAEQVTDVSGRGVGMDVVKRNIQKMGGHVEIQSKQGTGTTIRILLPLTLAILDGMSVRVADEVFILPLNAVMESLQPREADLHPLAGGERVLEVRGEYLPIVELWKVFNVAGAKTEATQGIVVILQSGGRRYALLVDQLIGQHQVVVKNLESNYRKVPGISAATILGDGSVALIVDVSALQAINREQRMANTAA
